Results from the MegaScale stability set (Tsuboyama et al. 2023).

B1: EEHEE_rd4_0647 (parent)
chain: MQVTWGNVTVTFSNPEEAKKYAEKVARKLGGQVELHNGQFRIK

Variants of: B1
Test: folding stability dG (cDNA display proteolysis); higher = more stable
Settings: PBS, room temperature

Folding stability dG [kcal/mol], by site and new letter:
T11: F 3, V 2.59, W 3.23, N 2.58, L 2.62, P 1.65, D 1.99, K 2.49, Q 2.53, A 2.38
Q2: M 2.71, T 3.09, W 1.97, F 2.16, L 2.55, C 3.07, K 2.94, P 1.45, Y 2.23, E 2.52, V 2.86
Y21: L 1.74, M 1.71, C 2.87, G 0.194, V 1.47, R 0.486, N 0.633
K24: F 3.2, A 3.01, W 3.27, I 2.75, H 2.89, V 2.59, E 2.83, M 3.16
K43: V 3.52, E 2.28, H 2.66, M 2.86, T 3.14
G30: C 3.02, Y 1.81, P 1.04, E 1.59, V 1.45, M 2.05, H 2.53, A 1.88
A26: T 0.93, P -0.236, K 0.937, L 1.34, H 0.769, I 1.35, F 1
H36: S 2.6, Q 2.54, M 2.68
A18: V 0.732, L 1, R 0.219, T 0.656, H 0.323, I 0.86, C 1.92, E 0.034
E34: M 2.22, I 2.83, N 1.6, Q 2.25
G31: W 2.39, F 2.21, D 1.05, K 1.8, P 0.55, N 1.06, E 1.46
Q39: D 1.96, G 3.07, M 2.61, E 2.72
S13: D 2.75, R 2.81, M 2.6, Q 2.71, I 2.52
G6: D 2.86, Y 2.51, S 2.08, N 2.38, L 2.49, M 2.32, V 1.39, Q 1.99
A22: K 0.426, Q 0.207, S 1.24, R 0.493, N 0.101, E -0.084, P -0.509, W 1.04, L 1.62, M 1.48
V33: E 0.359, R 0.477, N 0.506, K 0.686, D 0.259, G 0.276, A 1.82, F 1.85
V3: G 0.57, C 1.8, M 1.05, T 0.641, N 0.227, S 0.229, E 0.263, P 0.068
L29: E 1.33, T 2.65, I 2.96, D 0.761, Q 1.58, N 1.6, H 2.06, V 2.77, R 1.62, G 1.17
V25: Q 1.87, M 2.95, S 0.981, D 0.13, H 1.01, N 0.417, A 1.61, R 1.33, I 3.11, W 2.69, G 0.217
T4: H 2.54, Q 2.49, L 2.6, I 2.97, P 0.446
E17: N 2.47, P 1.01, H 2.7, V 2.64, K 2.69, Q 2.76
R27: L 2.75, D 2.18, F 2.45, G 2.13, Y 2.41, M 2.59, P 0.58, C 3.21, N 2.37
N14: Y 1.91, P 0.65, H 2.38, A 2.21, G 2.12
R41: M 2.95, Q 2.66, V 3.5, C 2.94, P 0.495, I 3.53, G 1.3, D 1.31
P15: N 2.29, M 3.03, I 2.99, K 2.83, G 2.46, V 2.93, F 3.41, Q 2.7
K20: S 2.64, D 2.54, L 2.86, V 2.71, H 2.57, P 0.849, W 2.67
V8: P 0.417, S 2.01, L 2.45, N 2.51
E23: I 2.71, M 2.68, P 0.119, H 2.69, S 2.15, T 2.37
L35: G 1.48, D 1.84, T 2.24, R 2.13, E 2.5, N 1.96, K 2.11, H 2.1, I 2.83, P 1.3, V 2.83
N37: R 1.92, E 2.56, P 1.58, V 1.39, Q 2.27, H 2.14, G 2.32, A 2.05
F12: G -0.079, L 1.96, C 2.49, I 1.43, T 0.01, H 0.464, S -0.107
W5: C 3.09, P 0.153, V 2.64, D 1.03, T 1.19, Y 2.53, I 2.61
G38: Y 1.64, H 3.93, T 1.36, W 1.24, C 2.88, E 1.44, A 1.32, Q 1.67, M 1.65, L 1.46, R 1.89, V 0.809
V10: M 2.67, Y 2.7, A 1.97, S 1.23, P -0.399, H 2.15, D 0.472, I 2.94
I42: R 0.514, F 1.1, L 1.09, K 0.538, M 0.646, W 1.13, N 0.564, G 0.609, Y 0.752
N7: D 2.58, R 2.64, P 2.29, W 2.43, S 2.68, E 2.39, K 2.72, A 2.39, C 3.66, F 2.43, L 2.27
Q32: P 1.33, S 3, K 2.92, Y 3.33, F 3.08, W 3.18, G 1.77
K28: G 2.01, F 2.97, Q 2.79, R 2.98, S 2.51, V 2.87, T 2.54, H 2.9
K19: V 2.08, P 0.106, A 2.53, M 2.66, G 1.83, F 2.94, Y 2.94, D 0.816, I 2.42, H 2.34, N 1.71, W 2.88
T9: A 1.85, G 0.945, Q 1.84, I 2.71, V 2.84, S 2.26, F 1.95
F40: C 1.51, Y 3.2, T 0.626, S 0.308, D 0.455, W 3.25, M 1.95
E16: S 2.68, I 2.81, V 2.81, C 3.18, R 2.55, H 2.7, D 2.79, P 1.4, F 2.71, K 2.52
M1: L 2.78, E 1.3, S 2.61, D 1.42, N 2.45, I 3.13, A 2.6, H 2.9, P 2.09, G 1.95
